Test results as given in article PMC2760398.

Columns and labels:
[1] = biological target: Lyn11-FKBP12-sTEVp-CT (membrane-targeted FKBP12-TEVct of pBud-mem-sTEVp) (not stated | tobacco etch virus)
[2] = biological target: FKBP12-TEVct (118/119 sTEVp, C-terminal TEVp fragment fused to FKBP12) (not stated | tobacco etch virus); conditions: scale: % of the median FRET efficiency of control cells
[3] = biological target: FKBP12-TEVct (118/119 sTEVp, C-terminal TEVp fragment fused to FKBP12) (not stated | tobacco etch virus); conditions: scale: % of the median FRET efficiency of control cells; remark: listed apart in the source
[4] = biological target: FKBP12-TEVct (118/119 sTEVp, C-terminal TEVp fragment fused to FKBP12) (not stated | tobacco etch virus); conditions: scale: % of the median FRET efficiency of control cells; remark: listed apart in the source
[5] = biological target: C34V-FKBP12-TEVct (not stated | tobacco etch virus); conditions: scale: % of the median FRET efficiency of control cells
[6] = biological target: FKBP12-TEVct (118/119 sTEVp, C-terminal TEVp fragment fused to FKBP12) (not stated | tobacco etch virus); conditions: scale: % of the median FRET efficiency of control cells; remark: listed apart in the source
[7] = biological target: Lyn11-FKBP12-sTEVp-CT (membrane-targeted FKBP12-TEVct of pBud-mem-sTEVp) (not stated | tobacco etch virus); conditions: scale: % of the median FRET efficiency of control cells
[8] = biological target: Lyn11-FKBP12-sTEVp-CT (membrane-targeted FKBP12-TEVct of pBud-mem-sTEVp) (not stated | tobacco etch virus); conditions: scale: % of the median FRET efficiency of control cells; remark: listed apart in the source

FRB-TEVnt (118/119 sTEVp, N-terminal TEVp fragment fused to FRB) (from UniProt P42346 2018-2114)
inducible TEVp activity: median degree of current inactivation 1-(I95ms/Imax) of EGFP-KV3.4 (1 µg RNA) in HEK-293 cells, 1-3 µg pBud-mem-sTEVp, rapamycin (0.31 at 1 µg, 0.53 at 3 µg) [1]: 0.53
TEVp activity by fragment complementation: median FRET efficiency of the substrate C34V in HeLa cells, 450 ng of each 118/119 sTEVp plasmid, 100 nM rapamycin for 3 hours at 37°C [2]: 3
background TEVp activity: median FRET efficiency of the substrate C34V in HeLa cells, 450 ng of each 118/119 sTEVp plasmid, without rapamycin [2]: 83
TEVp activity by fragment complementation: median FRET efficiency of the substrate C34V in HeLa cells, 125 ng sTEVp, rapamycin for 3 hours [3]: 3
background TEVp activity: median FRET efficiency of the substrate C34V in HeLa cells, 125 ng sTEVp (optimum of a titration of the plasmid mass from 40 ng upwards), without rapamycin [3]: 96
background TEVp activity: median FRET efficiency of soluble C34V (100 ng) in HeLa cells, 300-1000 ng pBud-sol-sTEVp, without rapamycin (97% at 300 ng, 84% at 1000 ng) [4]: 97
inducible TEVp activity: median FRET efficiency of soluble C34V (100 ng) in HeLa cells, 300-1000 ng pBud-sol-sTEVp, 100 nM rapamycin for 3 hours (9% at 300 ng, 3% at 1000 ng) [4]: 9
background TEVp activity in cis: median FRET efficiency of C34V-FKBP12-TEVct (300 ng) in HeLa cells with 25 ng FRB-TEVnt, without rapamycin (significant decrease at 25 ng FRB-TEVnt and above) [5]: 84
inducible TEVp activity in cis: median FRET efficiency of C34V-FKBP12-TEVct (300 ng) in HeLa cells with 25 ng FRB-TEVnt, rapamycin for 3 hours (significant reduction also at 12 and 100 ng FRB-TEVnt) [5]: 0
background TEVp activity: median FRET efficiency of membrane-targeted mem-C34V (100 ng) in HeLa cells, 300-1000 ng pBud-sol-sTEVp, without rapamycin (98% at 300 ng, 89% at 1000 ng) [6]: 98
inducible TEVp activity: median FRET efficiency of membrane-targeted mem-C34V (100 ng) in HeLa cells, 300-1000 ng pBud-sol-sTEVp, rapamycin (7% at 300 ng, 3% at 1000 ng) [6]: 7
background TEVp activity: median FRET efficiency of soluble C34V (100 ng) in HeLa cells, 300-1000 ng pBud-mem-sTEVp, without rapamycin (no significant difference from control) [7]: 100
inducible TEVp activity: median FRET efficiency of soluble C34V (100 ng) in HeLa cells, 300-1000 ng pBud-mem-sTEVp, rapamycin (30% at 300 ng, 12% at 1000 ng) [7]: 30
background TEVp activity: median FRET efficiency of membrane-targeted mem-C34V in HeLa cells, 300-1000 ng pBud-mem-sTEVp, without rapamycin (56% at 300 ng, 46% at 1000 ng) [8]: 56
inducible TEVp activity: median FRET efficiency of membrane-targeted mem-C34V in HeLa cells, 300-1000 ng pBud-mem-sTEVp, rapamycin for 3 hours [8]: < 4
